Results published in US20240059752A1 (ZHEJIANG DOER BIOLOGICS CO., LTD., priority 2020, published 2024).
Where no end group is shown, it is not given here. [ ]: non-standard residue; d: D form. Aib = CC(C)(N)C(=O)O

Target: T1, hGIPR (Homo sapiens, UniProt P48546)
T1 construct: expressed in transfected cells
T1 sequence (P48546 22-466): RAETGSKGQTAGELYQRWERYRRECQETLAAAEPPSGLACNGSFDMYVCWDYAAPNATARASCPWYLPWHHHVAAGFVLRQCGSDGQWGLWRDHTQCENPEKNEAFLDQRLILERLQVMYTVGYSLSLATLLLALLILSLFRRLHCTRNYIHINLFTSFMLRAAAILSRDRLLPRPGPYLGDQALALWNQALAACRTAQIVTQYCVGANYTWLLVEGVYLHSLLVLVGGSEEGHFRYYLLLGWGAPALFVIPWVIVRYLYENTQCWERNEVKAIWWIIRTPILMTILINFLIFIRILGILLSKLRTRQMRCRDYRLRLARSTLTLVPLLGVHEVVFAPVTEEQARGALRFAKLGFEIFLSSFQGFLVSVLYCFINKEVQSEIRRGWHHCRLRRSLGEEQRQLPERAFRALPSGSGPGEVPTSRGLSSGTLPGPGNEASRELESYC
Test: GIPR agonist activity, luciferase reporter gene assay in CHO-K1 cells
Assay type: cell-based
Settings: % that of natural GIP peptide

**Q.** “P29: GCG analogue, SEQ ID No. 5, unconjugated backbone of P29F (H[Aib]QGTFTSDYSK[Aib]KDSQAAQDFVQWLLAGGPSSGAPPPS-NH2)” was tested. Which “GIPR agonist activity relative to natural GIP peptide” value did it give?
**A.** about 2%
